Data published in paper PMC9482650, “Quantitative fragmentomics allow affinity mapping of interactomes” (Nature Communications, 2022).

T1: NHERF3_4, Q5T2W1
T1 sequence (Q5T2W1 373-468, limits assumed, looked up): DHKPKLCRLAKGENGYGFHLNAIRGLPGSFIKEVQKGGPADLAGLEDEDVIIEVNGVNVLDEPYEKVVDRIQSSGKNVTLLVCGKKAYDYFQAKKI

T2: NHERF3_3, Q5T2W1
T2 sequence (Q5T2W1 238-333, limits assumed, looked up): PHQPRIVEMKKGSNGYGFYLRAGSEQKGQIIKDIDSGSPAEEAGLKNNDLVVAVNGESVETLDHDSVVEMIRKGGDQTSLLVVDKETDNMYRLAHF

T3: LRRC7, Q96NW7
T3 sequence (Q96NW7 1440-1537, limits assumed, looked up): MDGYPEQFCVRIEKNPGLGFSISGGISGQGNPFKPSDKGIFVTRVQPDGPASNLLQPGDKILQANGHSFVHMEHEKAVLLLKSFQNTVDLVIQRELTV

T4: TJP3_3, O95049
T4 sequence (O95049 375-456, limits assumed, looked up): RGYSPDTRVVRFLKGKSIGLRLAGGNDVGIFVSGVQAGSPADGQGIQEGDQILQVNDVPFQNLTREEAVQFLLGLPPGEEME

T5: HTRA3, P83110
T5 sequence (P83110 354-453, limits assumed, looked up): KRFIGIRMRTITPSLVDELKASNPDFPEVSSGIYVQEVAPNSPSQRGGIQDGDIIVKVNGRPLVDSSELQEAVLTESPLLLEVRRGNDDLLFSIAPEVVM

T6: APBA2_2, Q99767
T6 sequence (Q99767 654-744, limits assumed, looked up): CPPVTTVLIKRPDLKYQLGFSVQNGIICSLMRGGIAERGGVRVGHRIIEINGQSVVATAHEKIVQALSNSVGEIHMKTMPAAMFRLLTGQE

T7: FRMPD1, Q5SYB0
T7 sequence (Q5SYB0 52-145, limits assumed, looked up): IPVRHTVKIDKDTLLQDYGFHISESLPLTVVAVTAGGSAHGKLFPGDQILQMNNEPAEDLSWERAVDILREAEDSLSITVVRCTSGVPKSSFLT

T8: LNX2_3, Q8N448
T8 sequence (Q8N448 463-564, limits assumed, looked up): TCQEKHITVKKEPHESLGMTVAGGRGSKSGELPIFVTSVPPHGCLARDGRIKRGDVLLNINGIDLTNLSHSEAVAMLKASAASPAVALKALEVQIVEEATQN

T9: PDZD7_3, Q9H5P4
T9 sequence (Q9H5P4 857-944, limits assumed, looked up): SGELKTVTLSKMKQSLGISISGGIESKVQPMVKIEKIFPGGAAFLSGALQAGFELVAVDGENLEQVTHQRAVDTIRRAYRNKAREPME

T10: GRIP1_3, Q9Y3R0
T10 sequence (Q9Y3R0 247-346, limits assumed, looked up): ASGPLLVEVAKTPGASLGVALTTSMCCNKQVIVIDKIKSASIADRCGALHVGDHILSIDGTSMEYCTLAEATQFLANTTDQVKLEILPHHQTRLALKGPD

T11: ARHGAP21, Q5T5U3
T11 sequence (Q5T5U3 45-169, limits assumed, looked up): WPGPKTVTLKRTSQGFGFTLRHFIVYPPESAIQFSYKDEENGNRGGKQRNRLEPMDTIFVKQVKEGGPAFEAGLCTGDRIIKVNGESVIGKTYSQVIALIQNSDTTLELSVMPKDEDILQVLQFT

T12: APBA2_1, Q99767
T12 sequence (Q99767 563-664, limits assumed, looked up): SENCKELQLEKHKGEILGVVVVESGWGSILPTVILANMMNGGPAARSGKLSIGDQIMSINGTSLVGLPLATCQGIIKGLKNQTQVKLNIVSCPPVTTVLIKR

T13: PDZD2_2, O15018
T13 sequence (O15018 329-429, limits assumed, looked up): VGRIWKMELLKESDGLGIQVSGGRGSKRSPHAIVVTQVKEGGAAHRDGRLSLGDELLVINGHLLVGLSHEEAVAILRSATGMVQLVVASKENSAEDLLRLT

B1: JAM1, Q9Y624 (peptide)
chain: EFKQTSSFLV

target: T1, NHERF3_4, Q5T2W1; assay: holdup assay; parameters: key: below the threshold = too weak to quantify, mostly under pKd 3.1 to 4; conditions: plain residues with an end cap or a label only (N-terminal biotin on a linker: ado-ado)

pKd	Binder
3.51	B1

target: FRMPD3, Q5JV73; assay: holdup assay; parameters: key: below the threshold = too weak to quantify, mostly under pKd 3.1 to 4; conditions: plain residues with an end cap or a label only (N-terminal biotin on a linker: ado-ado)
Sequence (Q5JV73 12-100): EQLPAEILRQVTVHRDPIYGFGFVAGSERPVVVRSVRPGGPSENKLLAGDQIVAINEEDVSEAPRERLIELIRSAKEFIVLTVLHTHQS

pKd	Binder
below the threshold	B1

target: T2, NHERF3_3, Q5T2W1; assay: holdup assay; parameters: key: below the threshold = too weak to quantify, mostly under pKd 3.1 to 4; conditions: plain residues with an end cap or a label only (N-terminal biotin on a linker: ado-ado)

pKd	Binder
below the threshold	B1

target: Inadl_9, Q8NI35; assay: holdup assay; parameters: key: below the threshold = too weak to quantify, mostly under pKd 3.1 to 4; conditions: plain residues with an end cap or a label only (N-terminal biotin on a linker: ado-ado)
Sequence (Q8NI35 1530-1615): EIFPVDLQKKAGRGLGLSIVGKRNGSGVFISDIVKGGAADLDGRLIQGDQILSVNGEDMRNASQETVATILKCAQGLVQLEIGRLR

pKd	Binder
3.86	B1

target: T3, LRRC7, Q96NW7; assay: holdup assay; parameters: key: below the threshold = too weak to quantify, mostly under pKd 3.1 to 4; conditions: plain residues with an end cap or a label only (N-terminal biotin on a linker: ado-ado)

pKd	Binder
below the threshold	B1

target: MAST1, Q9Y2H9; assay: holdup assay; parameters: key: below the threshold = too weak to quantify, mostly under pKd 3.1 to 4; conditions: plain residues with an end cap or a label only (N-terminal biotin on a linker: ado-ado)
Sequence (Q9Y2H9 962-1065): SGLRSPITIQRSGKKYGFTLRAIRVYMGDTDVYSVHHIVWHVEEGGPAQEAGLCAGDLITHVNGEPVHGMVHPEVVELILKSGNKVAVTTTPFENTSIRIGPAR

pKd	Binder
3.56	B1

target: TJP1_3, Q07157; assay: holdup assay; parameters: key: below the threshold = too weak to quantify, mostly under pKd 3.1 to 4; conditions: plain residues with an end cap or a label only (N-terminal biotin on a linker: ado-ado)
Sequence (Q07157 416-512): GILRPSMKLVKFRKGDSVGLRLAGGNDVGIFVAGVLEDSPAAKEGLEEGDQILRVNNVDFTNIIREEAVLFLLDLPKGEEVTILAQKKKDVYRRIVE

pKd	Binder
below the threshold	B1

target: T4, TJP3_3, O95049; assay: holdup assay; parameters: key: below the threshold = too weak to quantify, mostly under pKd 3.1 to 4; conditions: plain residues with an end cap or a label only (N-terminal biotin on a linker: ado-ado)

pKd	Binder
below the threshold	B1

target: GOPC, Q9HD26; assay: holdup assay; parameters: key: below the threshold = too weak to quantify, mostly under pKd 3.1 to 4; conditions: plain residues with an end cap or a label only (N-terminal biotin on a linker: ado-ado)

pKd	Binder
below the threshold	B1

target: T5, HTRA3, P83110; assay: holdup assay; parameters: key: below the threshold = too weak to quantify, mostly under pKd 3.1 to 4; conditions: plain residues with an end cap or a label only (N-terminal biotin on a linker: ado-ado)

pKd	Binder
4.16	B1

target: T6, APBA2_2, Q99767; assay: holdup assay; parameters: key: below the threshold = too weak to quantify, mostly under pKd 3.1 to 4; conditions: plain residues with an end cap or a label only (N-terminal biotin on a linker: ado-ado)

pKd	Binder
below the threshold	B1

target: T7, FRMPD1, Q5SYB0; assay: holdup assay; parameters: key: below the threshold = too weak to quantify, mostly under pKd 3.1 to 4; conditions: plain residues with an end cap or a label only (N-terminal biotin on a linker: ado-ado)

pKd	Binder
below the threshold	B1

target: LNX1_1, Q8TBB1; assay: holdup assay; parameters: key: below the threshold = too weak to quantify, mostly under pKd 3.1 to 4; conditions: plain residues with an end cap or a label only (N-terminal biotin on a linker: ado-ado)
Sequence (Q8TBB1 261-371): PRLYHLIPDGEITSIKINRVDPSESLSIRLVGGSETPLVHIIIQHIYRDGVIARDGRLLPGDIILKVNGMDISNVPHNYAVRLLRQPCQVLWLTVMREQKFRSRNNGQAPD

pKd	Binder
3.6	B1

target: T8, LNX2_3, Q8N448; assay: holdup assay; parameters: key: below the threshold = too weak to quantify, mostly under pKd 3.1 to 4; conditions: plain residues with an end cap or a label only (N-terminal biotin on a linker: ado-ado)

pKd	Binder
below the threshold	B1

target: Inadl_5, Q8NI35; assay: holdup assay; parameters: key: below the threshold = too weak to quantify, mostly under pKd 3.1 to 4; conditions: plain residues with an end cap or a label only (N-terminal biotin on a linker: ado-ado)
Sequence (Q8NI35 673-780): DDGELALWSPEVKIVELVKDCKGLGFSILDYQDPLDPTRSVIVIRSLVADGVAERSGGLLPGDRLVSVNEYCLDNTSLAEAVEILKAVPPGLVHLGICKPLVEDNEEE

pKd	Binder
3.53	B1

target: IL16_3, Q14005; assay: holdup assay; parameters: key: below the threshold = too weak to quantify, mostly under pKd 3.1 to 4; conditions: plain residues with an end cap or a label only (N-terminal biotin on a linker: ado-ado)
Sequence (Q14005 1107-1207): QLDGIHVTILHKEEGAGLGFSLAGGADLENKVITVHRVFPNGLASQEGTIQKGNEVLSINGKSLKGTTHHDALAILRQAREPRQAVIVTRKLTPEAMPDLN

pKd	Binder
below the threshold	B1

target: GRIP2_7, Q9C0E4; assay: holdup assay; parameters: key: below the threshold = too weak to quantify, mostly under pKd 3.1 to 4; conditions: plain residues with an end cap or a label only (N-terminal biotin on a linker: ado-ado)
Sequence (Q9C0E4 934-1023): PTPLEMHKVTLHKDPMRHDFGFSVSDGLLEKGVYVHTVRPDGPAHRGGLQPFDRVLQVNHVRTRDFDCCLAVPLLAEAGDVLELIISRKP

pKd	Binder
3.86	B1

target: T9, PDZD7_3, Q9H5P4; assay: holdup assay; parameters: key: below the threshold = too weak to quantify, mostly under pKd 3.1 to 4; conditions: plain residues with an end cap or a label only (N-terminal biotin on a linker: ado-ado)

pKd	Binder
4.03	B1

target: T10, GRIP1_3, Q9Y3R0; assay: holdup assay; parameters: key: below the threshold = too weak to quantify, mostly under pKd 3.1 to 4; conditions: plain residues with an end cap or a label only (N-terminal biotin on a linker: ado-ado)

pKd	Binder
below the threshold	B1

target: T11, ARHGAP21, Q5T5U3; assay: holdup assay; parameters: key: below the threshold = too weak to quantify, mostly under pKd 3.1 to 4; conditions: plain residues with an end cap or a label only (N-terminal biotin on a linker: ado-ado)

pKd	Binder
below the threshold	B1

target: DLG2_3, Q15700; assay: holdup assay; parameters: key: below the threshold = too weak to quantify, mostly under pKd 3.1 to 4; conditions: plain residues with an end cap or a label only (N-terminal biotin on a linker: ado-ado)

pKd	Binder
3.63	B1

target: T12, APBA2_1, Q99767; assay: holdup assay; parameters: key: below the threshold = too weak to quantify, mostly under pKd 3.1 to 4; conditions: plain residues with an end cap or a label only (N-terminal biotin on a linker: ado-ado)

pKd	Binder
below the threshold	B1

target: T13, PDZD2_2, O15018; assay: holdup assay; parameters: key: below the threshold = too weak to quantify, mostly under pKd 3.1 to 4; conditions: plain residues with an end cap or a label only (N-terminal biotin on a linker: ado-ado)

pKd	Binder
3.72	B1

target: DLG1_1, Q12959; assay: holdup assay; parameters: key: below the threshold = too weak to quantify, mostly under pKd 3.1 to 4; conditions: plain residues with an end cap or a label only (N-terminal biotin on a linker: ado-ado)

pKd	Binder
below the threshold	B1

target: Inadl_3, Q8NI35; assay: holdup assay; parameters: key: below the threshold = too weak to quantify, mostly under pKd 3.1 to 4; conditions: plain residues with an end cap or a label only (N-terminal biotin on a linker: ado-ado)
Sequence (Q8NI35 359-469): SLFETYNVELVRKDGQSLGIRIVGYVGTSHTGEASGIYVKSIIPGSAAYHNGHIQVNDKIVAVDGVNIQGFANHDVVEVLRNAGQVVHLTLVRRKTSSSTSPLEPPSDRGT

pKd	Binder
4.65	B1
